Reference: US10662241B1, “HER3 antigen-binding molecules” (Hummingbird Bioscience Holdings Pte. Ltd., priority 2019, dated 2020)
Entries after “also recorded” stand apart in the source; their conditions may differ.

Tests used:
[1] = test system: HEK293 cells engineered to express HER3; assay: Antibody internalisation, pHrodo imaging, HEK293 HER3; type: cell-based; details: 120 nM, 24 hours, HEK293 overexpressing HER3
Experimental: (§1) Briefly, 100,000 HEK293 cells engineered to express HER3, HCC95, N87 or OVCAR8 cells were seeded in wells of 96-well tissue culture plates and cultured overnight at 37° C. in 5% CO2. […] The cells in culture were imaged every 30 min for 24 hours, in 4 different fields of each well. The maximum signal intensity in the FITC channel of each field was quantified at 24 hours.

OVCAR8 cells = assay: Antibody internalisation, pHrodo imaging, OVCAR8; type: cell-based; details: 120 nM, 24 hours
Experimental: as §1

human HER3 [2] = biological target: T1, human HER3 (Homo sapiens, UniProt P21860); assay: Immunohistochemistry of frozen human tissue sections; set-up: from tissue; host or cells: arrays of frozen tissue sections; details: mIgG2a format
Experimental: Anti-HER3 antibody 10D1F in mIgG2a format was evaluated for its ability to be used in immunohistochemistry for the detection of human HER3 protein.
Processing of sections was performed using Bond reagents (Leica Biosystems). Arrays of commercially-available frozen tissue sections were obtained. Slides were dried in a desiccator for 10 min and then subjected to the following treatments, with water washes and/or TBS-T rinses between steps: (i) fixation by treatment with 100% acetone for 10 min at room temperature; (ii) endogenous peroxidase blocking by treatment with 3% (v/v) H2O2 for 15 min at room temperature; (iii) blocking by treatment with 10% goat serum for 30 min at room temperature, (iv) incubation with 10D1F-mIgG2a at 1:250 dilution of a 6.2 mg/ml solution overnight at 4° C., (v) incubation with HRP-polymer conjugated goat anti-mouse antibody for 30 min at room temperature, and (vi) development with Bond Mixed DAB Refine for 5 min at room temperature, followed by rinsing with deionised water and 1× Bond Wash to stop the reaction.
Slides were then dehydrated, mounted in synthetic mounting media and scanned with high resolution.

human HER2 = biological target: T2, human HER2 (Homo sapiens, UniProt P04626); assay: ELISA specificity, human HER2; type: binding; details: antibody up to 10 μg/ml
T2 construct: purchased Sino Biological Inc., China
Experimental: (§2) ELISAs were used to determine the binding specificity of the antibodies. The antibodies were analysed for binding to human HER3 polypeptide, as well as respective mouse, rat and monkey homologues of HER3 (Sino Biological Inc., China). The antibodies were also analysed for their ability to bind to human EGFR and human HER2 (Sino Biological Inc., China).
(§3) ELISAs were carried out according to standard protocols. Briefly, 96-well plates (Nunc, Denmark) were coated with 0.1 μg/ml of target polypeptide in phosphate-buffered saline (PBS) for 16 h at 4° C. After blocking for 1 h with 1% BSA in […] (TBS) at room temperature, the anti-HER3 antibody was serially diluted with the highest concentration being 10 μg/ml, and added to the plate, Post 1 h incubation at room temperature, plates were washed three times with TBS containing 0.05% Tween 20 (TBS-T) and were then incubated with a HRP-conjugated anti-His antibody (Life Technologies, Inc., USA) for 1 h at room temperature. […] The reaction was stopped with 2M H2SO4, and OD was measured at 450 nm.
(§4) The antibodies were analysed for their ability to bind to human HER3 polypeptide as well as human HER1 (EGFR) and human HER2 (Sino Biological Inc., China). […]
(§5) ELISAs were carried out according to standard protocols. […] The reaction was stopped with 2M H2SO4, and OD was measured at 450 nm.

human EGFR = biological target: T3, human EGFR (Homo sapiens, UniProt P00533); assay: ELISA specificity, human EGFR; type: binding; details: antibody up to 10 μg/ml
T3 construct: purchased Sino Biological Inc., China
Experimental: as §2, §3, §4, §5

mouse HER3 = biological target: T4, mouse HER3 (Mus musculus, UniProt Q61526); assay: ELISA cross-reactivity, mouse HER3; type: binding
T4 construct: purchased Sino Biological Inc., China
Experimental: as §2
(§6) ELISAs were carried out according to standard protocols. Briefly, 96-well plates (Nunc, Denmark) were coated with 0.1 μg/ml of target polypeptide in phosphate-buffered saline (PBS) for 16 h at 4° C. After blocking for 1 h with 1% BSA in […] (TBS) at room temperature, the anti-HER3 antibody was serially diluted with the highest concentration being 10 μg/ml, and added to the plate, Post 1 h incubation at room temperature, plates were washed three times with TBS containing 0.05% Tween 20 (TBS-T) and were then incubated with a HRP-conjugated anti-His antibody (Life Technologies, Inc., USA) for 1 h at room temperature. After washing, plates were developed with colorimetric detection substrate 3,3′,5,5′-tetramethylbenzidine (Turbo-TMB; Pierce, USA) for 10 min. The reaction was stopped with 2M H2SO4, and OD was measured at 450 nm. […]

rat HER3 = biological target: T5, rat HER3 (Rattus norvegicus, UniProt Q62799); assay: ELISA cross-reactivity, rat HER3; type: binding
T5 construct: purchased Sino Biological Inc., China
Experimental: as §2, §6

cynomolgus macaque HER3 = assay: ELISA cross-reactivity, cynomolgus macaque HER3; type: binding
Experimental: as §2, §6

N87 cells = assay: CCK-8 proliferation assay, N87 cells; type: cell-based; details: N87, 5 days, from 100 μg/ml
Experimental: (§7) Cell proliferation was measuring using the CCK-8 proliferation assay (Dojindo, Japan) after a period of 5 days, in accordance with the manufacturers instructions, Briefly 1×CCK-8 solution was added to each well followed by incubation for 2 h at 37° C. The OD was then measured at 450 nm.

FaDu cells = assay: CCK-8 proliferation assay, FaDu cells; type: cell-based; details: 5 days, from 100 μg/ml
Experimental: as §7

[3] = test system: PI3K/AKT/mTOR and MAPK signalling; assay: Phosphoprotein Antibody Array, FaDu cells; type: cell-based; details: 50 μg/ml 4 hrs, NRG 100 ng/ml
Experimental: In further experiments the inventors investigated the intracellular signalling pathways affected by anti-HER3 antibody-mediated inhibition of HER3.
FaDu cells were seeded in wells of a 6 well plate with 10% serum at 37° C., 5% CO2. After 16 hrs, cells were starved by culture overnight in 1% FBS cell culture medium. […] Proteins were then extracted, quantified using standard Bradford protein assay, and incubated overnight with pre-blocked Phosphoprotein Antibody Array membrane (Ray Biotech) at 4° C., The membrane was then washed with washing buffer and incubated with detection antibody cocktail for 2 hrs at room temperature, followed by washing and incubation with HRP-Conjugated anti-IgG. After 2 hrs the membrane was washed and probed using the kit detection buffer. Images were captured with Syngene Gbox imaging system, the intensity of each dot/phosphoprotein was measured and percent inhibition was calculated by comparison with intensity measured for cells treated in the same way in the absence of the antibody.

[4] = test system: HER3-mediated signalling (pHER3, pAKT); assay: Inhibition of HER3-mediated signalling in vitro, phospho-western blot; type: cell-based; details: N87 and FaDu cells, 50 μg/ml 4 hrs, NRG 100 ng/ml
Experimental: Briefly, N87 and FaDu cells were seeded in wells of a 6 well plate with 10% serum at 37° C., 5% CO2. After 16 hrs, cells were starved by culture overnight in 1% FBS cell culture medium (to reduce signalling elicited by growth factors in the serum). […] Proteins were then extracted, quantified using standard Bradford protein assay, fractionated by SDS-PAGE, and transferred to nitrocellulose membranes. The membranes were then blocked and immunoblotted with the following antibodies overnight at 4° C. anti-pHER3, anti-pAKT, pan anti-HER3, pan anti-AKT and anti-beta-actin. The blots were visualized via Bio-Rad Clarity Western ECL substrate, and bands were quantified using densiometric analysis; data were normalized to beta actin controls.
N87, FaDu or OvCAR8 cells were seeded in wells in a 6 well plate with 10% serum overnight at 37° C. with 5% CO2. […] Antibodies tested were: 10D1F.FcA (10D1), Seribantumab (SBT), Elegemtumab (LJM), Pertuzumab (PTM), Cetuximab (CTX), and Trastuzumab (TZ).
Before harvesting, cells were stimulated with 100 ng/ml of NRG1, Protein extracted from cell lines were quantified using standard Bradford protein assay, Protein samples (50 μg) were fractionated by SDS-PAGE and transferred to nitrocellulose membrane. […] The blots were quantified using densiometric analysis and data was normalised to beta actin. […]

human HER3 [5] = biological target: T1, human HER3; assay: BLI competition between anti-HER3 antibodies for binding to HER3
Experimental: Bio-Layer Interferometry (BLI) experiments were performed using the Octet QK384 system (ForteBio), anti-Penta-HIS (HIS1K) coated biosensor tips (ForteBio, USA) were used to capture His-tagged human HER3 (75 nM; 300 s). […] The variable region of LJM-716 antibody was cloned in the PDZ vector having human IgG1 and IgKappa Fc backbone.
BLI experiments were performed as described in Example 3.5 with one alteration: 400 nM of competing antibodies were used. The variable regions of M-05-74 and M-08-11 antibodies were cloned in the PDZ vector having human IgG1 and IgKappa Fc backbone.

T5 sequence (Q62799 20-1339): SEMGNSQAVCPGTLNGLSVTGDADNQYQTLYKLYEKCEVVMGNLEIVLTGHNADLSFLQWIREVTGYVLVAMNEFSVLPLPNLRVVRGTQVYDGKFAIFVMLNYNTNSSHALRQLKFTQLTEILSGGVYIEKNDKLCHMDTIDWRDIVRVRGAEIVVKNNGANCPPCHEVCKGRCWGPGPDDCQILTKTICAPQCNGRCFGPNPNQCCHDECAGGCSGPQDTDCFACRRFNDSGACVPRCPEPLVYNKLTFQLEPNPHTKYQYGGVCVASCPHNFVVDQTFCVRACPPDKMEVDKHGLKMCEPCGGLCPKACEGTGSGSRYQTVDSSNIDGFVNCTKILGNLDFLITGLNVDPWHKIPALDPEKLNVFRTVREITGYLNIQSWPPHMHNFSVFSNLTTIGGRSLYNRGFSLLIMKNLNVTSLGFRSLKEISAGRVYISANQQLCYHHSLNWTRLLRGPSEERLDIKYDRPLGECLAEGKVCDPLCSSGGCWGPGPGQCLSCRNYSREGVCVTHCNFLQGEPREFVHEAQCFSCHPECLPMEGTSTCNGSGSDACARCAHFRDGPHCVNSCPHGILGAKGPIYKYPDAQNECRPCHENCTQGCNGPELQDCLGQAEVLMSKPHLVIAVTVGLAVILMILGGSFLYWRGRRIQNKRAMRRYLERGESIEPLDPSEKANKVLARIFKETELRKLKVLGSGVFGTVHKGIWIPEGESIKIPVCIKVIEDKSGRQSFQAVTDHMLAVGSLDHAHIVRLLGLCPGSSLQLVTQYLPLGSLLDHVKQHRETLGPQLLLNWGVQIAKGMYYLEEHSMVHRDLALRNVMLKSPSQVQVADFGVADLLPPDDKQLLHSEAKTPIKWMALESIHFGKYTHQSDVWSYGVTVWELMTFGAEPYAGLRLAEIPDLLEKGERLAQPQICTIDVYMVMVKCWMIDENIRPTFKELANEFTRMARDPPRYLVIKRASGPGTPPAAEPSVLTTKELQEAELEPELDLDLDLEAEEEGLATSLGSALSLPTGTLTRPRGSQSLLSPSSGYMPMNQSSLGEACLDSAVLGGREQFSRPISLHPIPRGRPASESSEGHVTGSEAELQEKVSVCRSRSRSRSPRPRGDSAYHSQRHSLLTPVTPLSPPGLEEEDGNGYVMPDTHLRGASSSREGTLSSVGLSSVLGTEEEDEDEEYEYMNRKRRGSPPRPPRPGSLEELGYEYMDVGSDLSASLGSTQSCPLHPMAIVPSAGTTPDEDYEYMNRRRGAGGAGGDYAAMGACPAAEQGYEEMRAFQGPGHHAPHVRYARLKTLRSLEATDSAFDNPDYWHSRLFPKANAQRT
T4 sequence (Q61526 20-1339): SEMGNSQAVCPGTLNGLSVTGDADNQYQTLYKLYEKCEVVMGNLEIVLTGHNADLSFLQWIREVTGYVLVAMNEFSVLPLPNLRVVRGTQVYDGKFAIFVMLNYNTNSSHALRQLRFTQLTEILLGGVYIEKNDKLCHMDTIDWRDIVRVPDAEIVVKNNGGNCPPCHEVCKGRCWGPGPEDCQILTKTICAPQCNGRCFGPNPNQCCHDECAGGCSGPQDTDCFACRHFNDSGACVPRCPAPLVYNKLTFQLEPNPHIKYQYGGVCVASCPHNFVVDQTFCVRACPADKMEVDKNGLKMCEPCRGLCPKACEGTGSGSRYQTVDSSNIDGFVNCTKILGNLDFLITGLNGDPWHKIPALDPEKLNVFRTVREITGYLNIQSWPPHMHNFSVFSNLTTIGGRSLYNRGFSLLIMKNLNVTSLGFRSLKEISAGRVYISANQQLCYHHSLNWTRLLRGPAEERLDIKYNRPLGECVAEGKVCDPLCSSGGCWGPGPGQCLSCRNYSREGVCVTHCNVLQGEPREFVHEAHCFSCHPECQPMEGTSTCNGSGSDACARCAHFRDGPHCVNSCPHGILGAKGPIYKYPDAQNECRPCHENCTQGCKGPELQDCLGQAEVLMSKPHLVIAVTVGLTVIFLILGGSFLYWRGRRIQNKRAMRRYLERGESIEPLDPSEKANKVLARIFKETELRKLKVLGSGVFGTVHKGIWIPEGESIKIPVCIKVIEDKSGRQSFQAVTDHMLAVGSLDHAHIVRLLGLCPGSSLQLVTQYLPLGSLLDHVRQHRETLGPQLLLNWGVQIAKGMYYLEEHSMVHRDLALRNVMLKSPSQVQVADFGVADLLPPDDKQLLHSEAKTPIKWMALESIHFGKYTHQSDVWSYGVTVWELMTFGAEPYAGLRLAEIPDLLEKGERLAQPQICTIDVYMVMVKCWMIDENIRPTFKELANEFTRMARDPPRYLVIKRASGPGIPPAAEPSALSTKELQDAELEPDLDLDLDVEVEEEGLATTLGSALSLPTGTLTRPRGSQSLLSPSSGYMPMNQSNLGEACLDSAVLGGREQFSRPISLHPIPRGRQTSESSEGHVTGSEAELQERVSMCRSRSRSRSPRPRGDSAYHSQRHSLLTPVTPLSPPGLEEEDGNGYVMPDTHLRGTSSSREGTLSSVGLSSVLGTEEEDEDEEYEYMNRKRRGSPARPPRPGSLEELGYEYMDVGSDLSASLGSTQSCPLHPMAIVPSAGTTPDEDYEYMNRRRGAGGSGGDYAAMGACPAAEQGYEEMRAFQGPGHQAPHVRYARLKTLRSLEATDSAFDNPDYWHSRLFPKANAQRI

LJM716: anti-HER3 antibody clone LJM716 (Garner et al., Cancer Res (2013) 73: 6024-6035), also referred to as Elgemtumab [reference compound]
Internalisation [1]: significant internalization | Internalisation (OVCAR8 cells): Modest to moderate internalization

B1: 10D1F: Anti-HER3 antibody 10D1F (VH SEQ ID NO:36, VL SEQ ID NO:83) in mIgG2a format, used for immunohistochemistry (antibody, V domains shown)
VH: QVQLQESGPGLVKPSQTLSLTCTVSGYSITSGYSWHWIRQHPGKGLEWIGSIRYSGGTDYNPSLKSLVTISADTSKNQFSLKLSSVTAADTAVYYCARMTTAPWYPFDYWGQGTTVTVSS
VL: DIQMTQSPSSVSASVGDRVTITCKASQIVGSNVAWYQQKPGKAPEPLIYSASYLYSGVPSRFSGSGSGTDFTLTISSLQPEDFATYYCQQYSSHPLTFGQGTKLEIK
modifications: mouse IgG2a constant regions; 10D1_c89 heavy chain variable region; 10D1_c89 light chain variable region
Staining of malignant and normal human tissue sections (human HER3 [2]): preferentially stained malignant human tissue sections, with low cross-reactivity to normal tissue

B2: 4-35-B2: anti-HER3 antibody clone; VH = SEQ ID NO:127, VL = SEQ ID NO:135 (antibody, V domains shown)
VH: EIQLQQSGPELVKPGASVKVSCKASGYSFTDYNMYWVKQSHGKSLEWIGHINPYNGGTTYNQKFKGRATLTVDKSSSTAFMHLNSLTSEDSAVYFCVSLRWGAMDYWGQGTSVTVSS
VL: QIVLTQSPALMSASPGEKVTMTCSASSSVSYMYWYQQKPRSSPKPWIYLTSNLASGVPARFSGSGSGTSYSLTISSMEAEDAATYYCQQWNSNPYTFGGGTKLEIK
modifications: 4-35-B2 heavy chain variable region; 4-35-B2 light chain variable region
Binding to human HER2 (human HER2): bind to human HER2 and human EGFR | Binding to human EGFR (human EGFR): bind to human HER2 and human EGFR | Cross-reactivity with mouse HER3 (mouse HER3): substantial cross-reactivity | Cross-reactivity with rat HER3 (rat HER3): substantial cross-reactivity | Cross-reactivity with cynomolgus macaque HER3 (cynomolgus macaque HER3): substantial cross-reactivity

B3: 10D1: anti-HER3 antibody clone, parental mouse; VH = SEQ ID NO:24, VL = SEQ ID NO:74 (antibody, V domains shown)
VH: DVQLQESGPDLVKPSQSLSLTCTVTGYSITSGYSWHWIRQFPGNKLEWMGSIHYSGGTNYNPSLKSRISITRDTSKNQFFLQLNSVTTEDTATYFCARMTTAPRYPFDYWGQGTTLTVSS
VL: DIVMTQSQKFMSTSVGDRVSVTCKASQIVGSNVAWYQQKPGQSPKPLIYSASYRYSGVPDRFTASGSGTDFTLTITNVQSEDLAEYFCQQYSSHPLTFGAGTKLELK
modifications: 10D1 heavy chain variable region; 10D1 light chain variable region
Inhibition of cell proliferation (N87 cells): dose-dependent inhibition of cell proliferation | Inhibition of cell proliferation (FaDu cells): dose-dependent inhibition of cell proliferation | Inhibition of intracellular signalling pathways [3]: inhibit PI3K/AKT/mTOR and MAPK signalling | Binding to human EGFR (human EGFR): not to bind | Cross-reactivity with mouse HER3 (mouse HER3): substantial cross-reactivity | Inhibition of HER3 phosphorylation and downstream signalling [4]: inhibit HER3 phosphorylation and downstream signalling | Competition with MM-121 and/or LJM-716 for binding to HER3 (human HER3 [5]): not to compete with MM-121 and/or LJM-716 for binding to HER3; also recorded: distinct and topologically distant epitope of HER3 than MM-121 and/or LJM-716 | Cross-reactivity with rat HER3 (rat HER3): substantial cross-reactivity | Cross-reactivity with cynomolgus macaque HER3 (cynomolgus macaque HER3): substantial cross-reactivity
